According to paper PMC5597324 (Molecular Biology of the Cell, 2017):

Target: the molecule itself
Experiment: SEC

Row | Protein | binding result
1 | MBP-Stv1NT-FLAG (cytosolic N-terminal domain of the yeast Golgi V-ATPase Vo a-subunit isoform Stv1, aa 1-418) (domain or fragment, S. cerevisiae, UniProt P37296 1-418, looked up) MNQEEAIFRSADMTYVQLYIPLEVIREVTFLLGKMSVFMVMDLNKDLTAFQRGYVNQLRRFDEVERMVGFLNEVVEKHAAETWKYILHIDDEGNDIAQPDMADLINTMEPLSLENVNDMVKEITDCESRARQLDESLDSLRSKLNDLLEQRQVIFECSKFIEVNPGIAGRATNPEIEQEERDVDEFRMTPDDISETLSDAFSFDDETPQDRGALGNDLTRNQSVEDLSFLEQGYQHRYMITGSIRRTKVDILNRILWRLLRGNLIFQNFPIEEPLLEGKEKVEKDCFIIFTHGETLLKKVKRVIDSLNGKIVSLNTRSSELVDTLNRQIDDLQRILDTTEQTLHTELLVIHDQLPVWSAMTKREKYVYTTLNKFQQESQGLIAEGWVPSTELIHLQDSLKDYIETLGSEYSTVFNVIL | binds
2 | MBP-Stv1NT(K84A)-FLAG (domain or fragment, S. cerevisiae, UniProt P37296 1-418, looked up) MNQEEAIFRSADMTYVQLYIPLEVIREVTFLLGKMSVFMVMDLNKDLTAFQRGYVNQLRRFDEVERMVGFLNEVVEKHAAETWAYILHIDDEGNDIAQPDMADLINTMEPLSLENVNDMVKEITDCESRARQLDESLDSLRSKLNDLLEQRQVIFECSKFIEVNPGIAGRATNPEIEQEERDVDEFRMTPDDISETLSDAFSFDDETPQDRGALGNDLTRNQSVEDLSFLEQGYQHRYMITGSIRRTKVDILNRILWRLLRGNLIFQNFPIEEPLLEGKEKVEKDCFIIFTHGETLLKKVKRVIDSLNGKIVSLNTRSSELVDTLNRQIDDLQRILDTTEQTLHTELLVIHDQLPVWSAMTKREKYVYTTLNKFQQESQGLIAEGWVPSTELIHLQDSLKDYIETLGSEYSTVFNVIL | binds
